From patent publication US20250206841A1 (ADEPT THERAPEUTICS, published 2025)

B1: 63H3 (antibody, V domains shown)
VH: QEQLKESGGGLVQPGGSLKLSCKASGFDFNSYGVSWVRQAPGKGLEWIAYIYPAFHNAYYANWVNGRFTISSDNAQNTVDLQLNSLTAADTATYFCARDAGGTDYNYNLWGPGTLVTVSS
VL: DVVMTQTPASVEVAVGGTVTLKCQASEDIESYSAWYQQKPGQPPNLLIYEASKLASGVSSRFSGSGYGTEFTLTISGVECADAATYYCQQALTIGNVDNPFGGGSEVVVR
notes: Rabbit-derived clone; LEM construct: VH + rabbit IgG CH1 + human IgG1 CH2-CH3
B2: 65D5 (antibody, V domains shown)
VH: QEQLKESGGGLVQPGGSLKLSCKASGFDFNAYGVSWVRQAPGKGLEWIAYIYPAFHNTYYATWVNGRFTISSHNAQNTLYLQLNTLTAADTATYFCARDAGTTDYNFNLWGPGTLVTVSS
VL: DIVMTQTPASVSEPVGGTVTIKCQASQSISSYLAWYQQKPGQPPKLLIYEATKLTSGVSSRFSGSGYGTEFTLTISGVECADAATYYCQQALTVGDVDNPFGGGSEVVVK
notes: as for B1
B3: 66A1 (antibody, V domains shown)
VH: QEQLKESGGGLVQPGGSLKLSCKASGFDFNNYGVSWVRQAPGKGLEWIAYIYPAFHNTYYASWVNGRFTISSHNAQNTLYLQLNSLTAADTATYFCARDAGGTDYAYNLWGPGTLVTVSS
VL: DVVMTQTPASVEAAVGGTVSINCQASEDIESYLAWYQQKPGQPPKLLIYKASTLASGVSSRFKGSGSGKQFTLTISGVECADAATYYCQQVLTIGNVDNPFGGGSEVVVK
notes: as for B1
B4: 5D4-2 (antibody, V domains shown)
VH: QQLEESGGGLVKPEGSLTLTCKGSGFDFSGTYWMWWVRQAPGKGLEWIASIYVGSGSSTYYASWAKGRFTISSTSSTAVTLQATSLTAADTATYFCARGATNNVFMNYFNLWGPGTLVTVSS
VL: FEMTQTPSSVSEPVGGTVTIKCQASEDISSNLGWYQQKPGQPPKLLIYGASTLASGVPSRFKGSGSGTEFTLTISDLEAADAATYYCQTSYYIDDGVNGFGGGTEVVVK

Assays:
[1] = biological target: T1, human Trop-2 expressed on cell surface (human, UniProt P09758 27-323); assay: flow cytometry, MCF-7 cells
T1 construct: whole, on cells; also called cell surface Trop-2
T1 sequence (looked up): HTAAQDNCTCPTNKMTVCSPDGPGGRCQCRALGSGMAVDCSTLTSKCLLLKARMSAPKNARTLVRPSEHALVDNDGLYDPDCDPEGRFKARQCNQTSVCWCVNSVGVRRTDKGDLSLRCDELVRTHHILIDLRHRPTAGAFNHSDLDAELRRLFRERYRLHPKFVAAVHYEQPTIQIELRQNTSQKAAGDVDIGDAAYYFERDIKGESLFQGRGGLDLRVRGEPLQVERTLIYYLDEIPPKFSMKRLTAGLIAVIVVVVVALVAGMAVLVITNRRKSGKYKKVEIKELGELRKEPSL
Method in brief: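 Cells at 10⁶/ml in DPBS/1% FBS were incubated on ice for 1 h with antibodies in 1:3 serial dilutions from 15 μg/mL. Detection used PE anti-human Fc (1:400, 30 min on ice) with 7-AAD viability staining, read by flow cytometry. EC₅₀ from binding curves; anti-HEL hIgG1 isotype control.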

[2] = biological target: T1, human Trop-2 expressed on cell surface; assay: cell-based or functional assay
human Trop-1 (EpCAM) = biological target: T2, human Trop-1 (EpCAM) (human, UniProt P16422 24-265, limits assumed); assay: ELISA, similar to Table 24
T2 sequence (looked up): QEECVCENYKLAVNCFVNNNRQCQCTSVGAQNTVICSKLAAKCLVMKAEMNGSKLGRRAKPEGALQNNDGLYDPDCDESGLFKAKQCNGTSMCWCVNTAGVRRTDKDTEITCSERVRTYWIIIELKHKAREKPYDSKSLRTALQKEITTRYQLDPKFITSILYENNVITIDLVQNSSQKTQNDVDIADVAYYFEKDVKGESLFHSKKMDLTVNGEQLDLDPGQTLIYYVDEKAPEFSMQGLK

[3] = biological target: T3, cynomolgus Trop-2-His protein (cynomolgus, UniProt P09758 27-274 (human entry)); assay: ELISA, coated Trop-2 protein
T3 construct: also called cynmolgus Trop-His; Kactus Cat #TRP-CM121; not shown: His tag
T3 chain: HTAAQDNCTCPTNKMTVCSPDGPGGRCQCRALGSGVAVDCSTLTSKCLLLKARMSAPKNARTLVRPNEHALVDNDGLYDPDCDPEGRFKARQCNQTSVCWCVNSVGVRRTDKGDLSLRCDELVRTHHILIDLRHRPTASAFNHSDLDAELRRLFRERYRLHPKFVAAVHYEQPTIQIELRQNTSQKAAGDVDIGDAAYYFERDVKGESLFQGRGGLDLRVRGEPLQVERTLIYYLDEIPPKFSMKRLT
Method in brief: (§1)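 Purified antibodies were checked for binding to human or cynomolgus Trop-2-His protein by ELISA. Maxisorp plates were coated overnight at 4° C with 0.5 μg/ml protein, blocked with PBST/3% BSA, and incubated with serially diluted antibodies. Binding was detected with HRP-conjugated anti-hIgG and TMB, read at 450 nm, and EC₅₀ values were calculated in Graphpad Prism.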

human Trop-2-His protein = biological target: T4, human Trop-2-His protein (human, UniProt P09758 27-274); assay: ELISA, coated Trop-2 protein
T4 construct: extracellular domain; Assay paragraphs say only 'Trop-2-His'; also called hTrop-2; Kactus Cat #TRP-HM121; not shown: His tag
T4 sequence (looked up): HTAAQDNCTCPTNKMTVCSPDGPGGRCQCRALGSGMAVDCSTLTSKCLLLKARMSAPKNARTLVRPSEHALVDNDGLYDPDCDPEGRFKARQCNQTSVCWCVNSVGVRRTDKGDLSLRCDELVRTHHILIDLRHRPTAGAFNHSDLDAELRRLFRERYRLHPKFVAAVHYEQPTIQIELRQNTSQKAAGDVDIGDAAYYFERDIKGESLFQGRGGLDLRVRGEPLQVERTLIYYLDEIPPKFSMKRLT
Method in brief: as §1

[4] = biological target: T1, human Trop-2 expressed on cell surface; assay: cell-based or functional assay; remark: listed apart in the source

Binder | EC50 [1] | Internalization %, MDA-MB-231, 0.25 µg/ml, 2 h [2] | Internalization %, MDA-MB-231, 0.25 µg/ml, 4 h [2] | Internalization %, MDA-MB-231, 0.5 µg/ml, 2 h [2] | Internalization %, MDA-MB-231, 0.5 µg/ml, 4 h [2] | Internalization %, MDA-MB-231, 1 µg/ml, 2 h [2] | Internalization %, MDA-MB-231, 1 µg/ml, 4 h [2] | Internalization %, MDA-MB-231, 2 µg/ml, 2 h [2] | Internalization %, MDA-MB-231, 2 µg/ml, 4 h [2] | binding result (human Trop-1 (EpCAM)) | EC50 [3] | EC50 (human Trop-2-His protein) | Internalization %, MCF-7, 0.25 µg/ml, 1 h [4] | Internalization %, MCF-7, 0.25 µg/ml, 2 h [4] | Internalization %, MCF-7, 0.25 µg/ml, 4 h [4] | Internalization %, MCF-7, 0.5 µg/ml, 1 h [4] | Internalization %, MCF-7, 0.5 µg/ml, 2 h [4] | Internalization %, MCF-7, 0.5 µg/ml, 4 h [4]
B1 | 600 pM | 40% | 48% | 39% | 45% | 38% | 49% | 37% | 39% | no binding | 33 pM | 29 pM | 15% | 26% | 36% | 23% | 37% | 44%
B2 | 800 pM | 34% | 51% | 43% | 51% | 37% | 48% | 31% | 41% | no binding | 15 pM | 19 pM | 18% | 36% | 41% | 23% | 41% | 42%
B3 | 600 pM | 45% | 51% | 46% | 50% | 39% | 49% | 36% | 43% | no binding | 14 pM | 13 pM | 20% | 36% | 45% | 33% | 45% | 53%
B4 | 800 pM | 55% | 61% | 48% | 57% | 52% | 58% | 57% | 62% | no binding | 18 pM | 15 pM | 51% | 67% | 58% | 23% | 43% | 61%
